# Test system: Escherichia coli TOP10
# Experiment: shrunken log2 fold change of peptide-encoding DNA abundance (4.5 h post-induction vs induction); higher = less antimicrobial activity (less host growth inhibition)
# Conditions: time post-induction: 4.5 h; library: site-saturation at positions 5, 18, 19, 20
# 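Note: peptides expressed intracellularly from a pBAD plasmid library in pooled LB shake-flask culture, induced with 0.3% L-arabinose, DNA abundance read by NGS, three biological replicates, DESeq2 with apeglm shrinkage.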
row,Sequence,shrunken log2 fold change
1,RRIRIRPPRLPRPRPRPILKPRP,0.134
2,RRIRARPPRLPRPRPRPACMPRP,0.313
3,RRIRMRPPRLPRPRPRPQPCPRP,0.376
4,RRIRNRPPRLPRPRPRPINGPRP,-0.262
5,RRIRWRPPRLPRPRPRPSFQPRP,-0.284
6,RRIRIRPPRLPRPRPRPHHVPRP,-0.091
7,RRIRYRPPRLPRPRPRPPDQPRP,-0.145
8,RRIRQRPPRLPRPRPRPNMEPRP,-0.404
9,RRIRYRPPRLPRPRPRPAMLPRP,-0.372
10,RRIRIRPPRLPRPRPRPMMSPRP,-0.00118
11,RRIRIRPPRLPRPRPRPCTLPRP,-1.08
12,RRIRPRPPRLPRPRPRPHLTPRP,0.185
13,RRIRRRPPRLPRPRPRPCTDPRP,-0.115
14,RRIRPRPPRLPRPRPRPIAEPRP,-0.0633
15,RRIRIRPPRLPRPRPRPQYSPRP,-0.581
16,RRIRMRPPRLPRPRPRPKEEPRP,0.0115
17,RRIRCRPPRLPRPRPRPEPWPRP,0.634
18,RRIRHRPPRLPRPRPRPLCGPRP,-0.302
19,RRIRERPPRLPRPRPRPIIFPRP,-0.352
20,RRIRRRPPRLPRPRPRPIWHPRP,0.176
21,RRIRTRPPRLPRPRPRPKTVPRP,-0.0654
22,RRIRVRPPRLPRPRPRPVWFPRP,-0.0288

row,Sequence,shrunken log2 fold change
1,RRIRQRPPRLPRPRPRPQPDPRP,-0.00546
2,RRIRGRPPRLPRPRPRPSLGPRP,0.488
3,RRIRRRPPRLPRPRPRPEEWPRP,-0.00804
4,RRIRCRPPRLPRPRPRPKWHPRP,-0.169
5,RRIRWRPPRLPRPRPRPHMYPRP,-0.443
6,RRIRHRPPRLPRPRPRPIHAPRP,-0.173
7,RRIRWRPPRLPRPRPRPLAQPRP,0.469
8,RRIRSRPPRLPRPRPRPKHDPRP,-0.0942
9,RRIRLRPPRLPRPRPRPRLFPRP,0.17
10,RRIRGRPPRLPRPRPRPCTVPRP,0.032
11,RRIRMRPPRLPRPRPRPEECPRP,0.0665
12,RRIRLRPPRLPRPRPRPMHMPRP,-0.226
13,RRIRKRPPRLPRPRPRPSLMPRP,0.256
14,RRIRCRPPRLPRPRPRPPGWPRP,0.612
15,RRIRSRPPRLPRPRPRPTAPPRP,0.317
16,RRIRRRPPRLPRPRPRPLDMPRP,-0.114
17,RRIRPRPPRLPRPRPRPLTKPRP,0.0122
18,RRIRTRPPRLPRPRPRPVTPPRP,0.184
19,RRIRERPPRLPRPRPRPNHCPRP,-0.0763
20,RRIRFRPPRLPRPRPRPMEQPRP,-0.00146
21,RRIRYRPPRLPRPRPRPTLCPRP,-0.239
22,RRIRTRPPRLPRPRPRPKTWPRP,-0.268

row,Sequence,shrunken log2 fold change
1,RRIRDRPPRLPRPRPRPLRYPRP,0.00765
2,RRIRVRPPRLPRPRPRPFCMPRP,-0.537
3,RRIRLRPPRLPRPRPRPAKNPRP,0.00752
4,RRIRYRPPRLPRPRPRPFGQPRP,-0.219
5,RRIRDRPPRLPRPRPRPDFHPRP,-0.139
6,RRIRIRPPRLPRPRPRPGCHPRP,-0.602
7,RRIRYRPPRLPRPRPRPSTIPRP,-0.324
8,RRIRCRPPRLPRPRPRPSGTPRP,-0.0132
9,RRIRLRPPRLPRPRPRPNIAPRP,-0.0706
10,RRIRPRPPRLPRPRPRPAHMPRP,-0.0534
11,RRIRNRPPRLPRPRPRPTLPPRP,0.149
12,RRIRFRPPRLPRPRPRPTWPPRP,0.422
13,RRIRLRPPRLPRPRPRPFACPRP,0.119
14,RRIRIRPPRLPRPRPRPTRDPRP,-0.0265
15,RRIRSRPPRLPRPRPRPAEGPRP,0.29
16,RRIRPRPPRLPRPRPRPACRPRP,0.183
17,RRIRFRPPRLPRPRPRPHMMPRP,-0.283
18,RRIRHRPPRLPRPRPRPARNPRP,0.093
19,RRIRSRPPRLPRPRPRPCGHPRP,0.0213
20,RRIRPRPPRLPRPRPRPVFAPRP,0.155
21,RRIRGRPPRLPRPRPRPHRQPRP,0.0397
22,RRIRVRPPRLPRPRPRPPFQPRP,0.164

row,Sequence,shrunken log2 fold change
1,RRIRPRPPRLPRPRPRPFSCPRP,-0.106
2,RRIRTRPPRLPRPRPRPTMAPRP,0.201
3,RRIRTRPPRLPRPRPRPEHHPRP,-0.203
4,RRIRLRPPRLPRPRPRPNLDPRP,-0.18
5,RRIRDRPPRLPRPRPRPLKQPRP,0.681
6,RRIRLRPPRLPRPRPRPCYEPRP,-0.284
7,RRIRDRPPRLPRPRPRPYYRPRP,-0.163
8,RRIRPRPPRLPRPRPRPSGHPRP,-0.395
9,RRIRMRPPRLPRPRPRPRRWPRP,0.881
10,RRIRARPPRLPRPRPRPVHLPRP,0.215
11,RRIRCRPPRLPRPRPRPTMYPRP,-0.541
12,RRIRARPPRLPRPRPRPHFWPRP,0.23
13,RRIRRRPPRLPRPRPRPGWRPRP,0.425
14,RRIRMRPPRLPRPRPRPGMIPRP,-0.00139
15,RRIRHRPPRLPRPRPRPSRNPRP,-0.134
16,RRIRMRPPRLPRPRPRPEIMPRP,2.57
17,RRIRTRPPRLPRPRPRPVRDPRP,0.543
18,RRIRIRPPRLPRPRPRPDGDPRP,-0.176
19,RRIRTRPPRLPRPRPRPWKIPRP,-0.0703
20,RRIRIRPPRLPRPRPRPSAYPRP,-0.138
21,RRIRKRPPRLPRPRPRPFRSPRP,0.0452
22,RRIRYRPPRLPRPRPRPEHIPRP,-0.0114

row,Sequence,shrunken log2 fold change
1,RRIRCRPPRLPRPRPRPTLQPRP,0.279
2,RRIRNRPPRLPRPRPRPVMLPRP,-0.171
3,RRIRSRPPRLPRPRPRPCSPPRP,0.149
4,RRIRWRPPRLPRPRPRPICSPRP,-0.199
5,RRIRSRPPRLPRPRPRPMKWPRP,0.053
6,RRIRDRPPRLPRPRPRPFQFPRP,-0.324
7,RRIRQRPPRLPRPRPRPFIKPRP,-0.382
8,RRIRIRPPRLPRPRPRPRVNPRP,-0.603
9,RRIRKRPPRLPRPRPRPIQSPRP,-0.0332
10,RRIRYRPPRLPRPRPRPIQCPRP,-0.0422
11,RRIRKRPPRLPRPRPRPERGPRP,0.443
12,RRIRRRPPRLPRPRPRPHANPRP,0.275
13,RRIRLRPPRLPRPRPRPGWSPRP,0.0496
14,RRIRFRPPRLPRPRPRPFHCPRP,-0.102
15,RRIRIRPPRLPRPRPRPFGTPRP,-0.109
16,RRIRIRPPRLPRPRPRPENTPRP,-0.397
17,RRIRYRPPRLPRPRPRPCPAPRP,-0.772
18,RRIRHRPPRLPRPRPRPCVVPRP,0.000418
19,RRIRKRPPRLPRPRPRPNRCPRP,0.0393
20,RRIRNRPPRLPRPRPRPVHLPRP,-0.138
21,RRIRYRPPRLPRPRPRPDHQPRP,-0.167

# Source: the supplement of paper PMC9112550, “Optimization of the antimicrobial peptide Bac7 by deep mutational scanning” (BMC Biology, 2022)
